A protein production outcome set (Wang et al. 2014)

Test: label from the status in PepcDB records

| Sequence | protein production |
| --- | --- |
| MYRDRVRLPSLLDKVMSAAEAADLIQDGMTVGMSGFTRAGEAKAVPQALAMRAKERPLRISLMTGASLGNDLDKQLTEAGVLARRMPFQVDSTLRKAINAGEVMFIDQHLSETVEQLRNHQLKLPDIAVIEAAAITEQGHIVPTTSVGNSASFAIFAKQVIVEINLAHSTNLEGLHDIYIPTYRPTRTPIPLTRVDDRIGSTAIPIPPEKIVAIVINDQPDSPSTVLPPDGETQAIANHLIDFFKREVDAGRMSNSLGPLQAGIGSIANAVMCGLIESPFENLTMYSEVLQDSTFDLIDAGKLRFASGSSITLSPRRNADVFGNLERYKDKLVLRPQEISNHPEVVRRLGIIGINTALEFDIYGNVNSTHVGGTKMMNGIGGSGDFARNAHLAIFVTKSIAKGGNISSVVPMVSHVDHTEHDVDILVTEQGLADLRGLAPRERARVIIENCVHPSYQAPLLDYFEAACAKGGHTPHLLREALAWHLNLEERGHMLAG | not failed |
| MYRHDVSNEEKDIAVSVIALTAAFAIANRFRSPYGPFFILAVSFLVAVTAFLMHELAHRYVARSYGGIAYFKMWPLGLLLALITSLLGFIFAAPGAVNIGGIYRRDQIGKTSLAGPAMNIFLGILFYAISLFTLIPVAIAIFRYVAEMNFWFGFFNLLPIPPLDGYKVFSWDLYVYIVSVVIALVFVVLFVF | failed |
| MYTENTGKHHRNGLPVWLLPLLVVISFWGVSQNIMVVDASSSVTVLPGNGGTLPLVNQLVIKQNDTALQGITNNAGDRGSLTPKNGAQRVLIHKVKDSDTITSTYGTVGTFHGQEVTAKVTISHIKVHDDSHKAPSGMKQTDGAFQIGPGFSSDTTMSNVAQFNVSYEFYYADTHAAVNIQNAFITLSSLDGPVAGTSTGFEYTAYLGAGKIYTVENSIVKQIANPLGGGQLVMAGQTARDASWPYTSSTAATFGVSGTKLEFIYGTTRVNSGNSWLQPVYNVSTITLGTPAIATPTLSATQSATDKQNRTLTYDLQQKVNVLDQDLMTKYKDWSENITIPANAKYTKGEVVNDAGQALPSTAYQVSYDEKTHQVKWHLTDAGIKSLPFKGETYHFKAQVQFSDDVDDQTKVTATGQTAIDKQTKTSNTVTNTIDNQATITVHHYMTDSTDKVAPDETVKVGYGKAYDVTKQVKTITGYKRNATLDEHTRGTASKTTKEAVMYYDPLPYNIHVNYLLTDGQKLDELDVTGLYGDTYTTEATDFEDLYTVDTDRLPTNAQGTVTEKPTTVNYYYQPTTGQWVDVGNQSSVLVRQDTKHNVRSVSQIYANDSGFTVKYNQDAAQVAIAASDTNGTQDNSLVFDYNSKYTFELSKNETVTFKVDDQGQVTATRVLGAEQTVTTFDKSGQLKTVTTVTNANGTKSQQTNTVDGLKSMVTGEQYDLGLLNGLKVTAQKEINPSQAATTESKTTTDTSQSGSNQSTSTTATDQTETNESTAGSSTNATNASSSVDASSANSQGDTEATSQSGTSASADSKTDSSVASSTSQTTDGKTDGETTNTGDTTTGTTTDSGLGFKSPFTEDQNTSSALGSAQTSSSLNSDTSAAVQALIAEPNSTPVVLGEDASFEEGVPVNDPVFSNDEGVSPNNNPSSAATPLAQATNTRARLTQNGKLLYEGTLKADQGEQNLYVSPDTTVEVDGGDDGDGFYLDTYDGDKGMAYTLGSGYAWAAENNDVTAAPASSATTSSESAASESNTNSSDSSRTASSAVDHSTSSASTSDASQSSHSTSSGESSHPESSSGSSTTSDSADADKQAAARSSQTQSNSVNGSSQAVSSSTVTSQSSVPTKANTKQASSTPTTKANRATVAAATSSTAPRQSRATTASASVPSVTSASAVAASRDKQQSAFKKQHPILNQILPKTNSAVATWLVWLGVGLLLLTVAITMVIKKRGRD | failed |
| MYTITDIAPTDAEFIALIAALDAWQETLYPAESNHLLDLSQLPPQTVIALAIRSPQGEAVGCGAIVLSEEGFGEMKRVYIDPQHRGQQLGEKLLAALEAKARQRDCHTLRLETGIHQHAAIALYTRNGYQTRCAFAPYQPDPLSVFMEKP | failed |
| MYTPVSKSTKSNKNRSSLDKILDAKKPVNLLILGTDTGAEGRSVKNYHGLTDLMMFVTVNPSKKQTRVTTIARDSKVNLPDYPEVSPIKLNSAYSLGGVSETIKTLDKYYSVPIDGYVLVNWASTMKIITKMGGVDVISPLTFDNMGYSFKKGQMYHISGKKALAFVQLRHGDPRQDYGRQERERLVMMAAIKKSVSYKTILNSSFMQSLGDSMQTDLSLNDMIKLAMNYQGVTDNVKSDYAQGKSSSVNNQRFGNMEVEIMSTKERQRISNNIRQTLGIKNVDVYKEDNLEHHHHHH | not failed |
| MYTYDSDKTQDGEENLKCSLEKLAKKIIQNAGDTNGNNSTPNSNDDFAQVFGRERPGRVRCVGLGPTPSSFIQNRTTTTLSKEQEVLSLNNRVRELEDKLVKMSDLEDKVDKMNEVIYISTCRRQQQLHYMTSTMDRRRWLQVEGNDFK | failed |
| MYVFTIGYFTIPANLFSLITSRYSAERKNVGGIVIINLIAGISSSLVFALLVPYYISLTKLDVPIYFYSAISLIILTYLLTVTNSIAQGRTPKIVGISALIFQVLRLVSGIIFMFIFNLSILAVILAYSIGYLAQVLFNLFFIRANLKIDFKVAFSAVRKAVVYIANYIQYILEASIVWITLGIVNSDLVVAYFESAIIVSNIQIGHKQYIQGLWLS | failed |
| MYYNIALAYTHLDIHHLAIHFVNMALEGFRSEYKFRNIINCQILIAVSYTEKGQYEEALKMYESILREATSFADKDVLLAITLSNMGSIYYKKGKYQQAKKYYLDSLQLQKQIDLNYLDTIYEMALVCIKLEELEEARTLIDKGIDAAKQEERFNAKLYLLLMLRYKYFEEAKDYKAFLENEAIPLYKSAGNKIELKKVYVELAEHFSSLSRFEESNRYYRLVIDLMNDNKEE | failed |
| MYYVYVAGYILLAAAMQLFTGNFPVSFLAFPLNIIFAAIWLFLLWILYKEYNNLRITRFLGSSKASVLSISLFIGGCLIIGLFPQLSEPEAEMRKGISASLGCYNFMTSWIFISILLLLLSNLAMITIHACRHRKQARWRFILNHTGLWLALFAGFLGSSDTQTLRIPLYKGEPKHEAFDMNGASYYLDYDMELNSFAVEYYPNGRPSRFSANVRLGNENVLLEVNHPYSYRLGEDVYLTGYDVTKGNESNYCILQVVKQPWKYVMVAGILMMLAGAVLLFINGAKAYDKLG | failed |
| NALHIINMVGTRNATDYGKHICVSFLQELQMLCPDVLVVSGLAYGIDINAHRSALSVELPTVGVLAHGLDRIYPSLHRKTAIDMLRQGGLLTEFLSGTNPDKHNFISRNRIVAGISDATIVVESAAKGGSLITADIAGSYHRDCFAFPGR | failed |
| NAMVLREDIDKLKLLAQQFEQELQAYNTRIGNLETRIAYLEDRQFSVTTKLTGDSIWVLSGVGGSEQADGPPDQPVQNGEVTVNFRQRINFNTSFSGEDNLLIRLQSANFFLARGGSNLTDFNFAATEEQGNVNINKMQYSFPVGDRARIWLAGNRITMDDIMDPLAPYTNSFTDGAVSFFGAIAPIYLPNDNSGPGAGFSYNFTDDLSLGGFYSAGKGFSPNQSEGLFNGQFGVGAQLNYVPAANTGVAFSYLHNYIPQGQYDSFSALGYTGLANTDNPFDDAASSTNHYAVIWTWQLADWFSLEGWGMYSDATAKSGDRQGDTADIWNWKVSLAFPDLGKEGNVGVVSVGQPPYASFISNNNNVPDITPATTDAPWFVETFYLYQFNDNISLTPAFWIGINPANGRDPLWVAALRTSFKF | failed |
| NANDQAIAYVMLGNKAQTVLNGNLKVDFMETENSSSVKKQKALVAKVSQREEMVKKCLGELTEVCKSLGKVFGVHYFNIFNTVTLKKLAESLSSDPEVLLQIDGVTEDKLEKYGAEVISVLQKYSEWTSPAED | failed |
| NANLDPKTRVLEHRLLAASSAIAEKLGVSAGDEVLLIRRLRSTGDIPVAILENYLPPAFNDVSLDELEKGGLYDALRSRGVVLKIANQKIGARRAVGEESTLLDIEDGGPLLTVERVALDNSGQVIELGSHCYRPDMYN | failed |
| NDTELPTYRVVSRLSLDDLIETIDEDLDREIEFSEEILDQVDTVGGLIAFEKGRIPLPGTTVTTSGLQLQAEGGRDRRGRIQVRSVLVSVLPVESLSEL | failed |
| NIESIENLQGIRALQQQAPQLLSSGLPNEQQFSLLKQAGVDVVINLMPDSSKDAHPDEGKLVTQAGMDYVYIPVDWQNPKVEDVEAFFAAMDQHKGKDVLVHCLANYRASAFAYLYQLKQGQNPNMAQTMTPWNDELAIYPKWQALLTEVSAKYGH | not failed |
| NILKIRCAPVTWPIGMGKNFKGVYHILNDEIYLFEAGGERLPHEFDIIKGIDNPELEQRFPLEIQQLRDEIELVQAASNEFNLDEFLAGELTPVFFGSAINNFGIQEILNSLIDWAPAPKPRDATVRMVEPDEPKFSGFIFKIQANMDPKHRDRIAFLRVCSGKFERGMKMKHLRINREIAASSVVTFMSHDRELVEEAYAGDIIGIPNHGNIQIGDSFSEGEQLAFTGIPFFAPELFRSVRIKNPLKIKQLQKGLQQLGEEGAVQVFKPMSGADLILGAVGVLQFEVVTSRLANEYGVEAVFDSASIWSARWVSCDDKKKLAEFEKANAGNLAIDAGGNLAYLAPNRVNLGLTQERWPDIVFHETREHSVKL | failed |
| NILSLLLHPRLGAVIQQMLEMPGHAWTVESLASIAHMSRASFAQLFRDVSGTTPLAVLTKLRLQIAAQMFSRETLPVVVIAESVGYASESSFHKAFVREFGCTPGEYRERVRQLA | not failed |
| NKDNLDLAGLTSLLSEKIKEFLQEKKMQSFYQQELETVESLQSLASRPVTHSTGSDQVELKDSGTSGVAQRVFKNALQLLQEKGLVFQRDSGSDKLYYVTTKDKDLQ | not failed |
| NKELNELNIIKLTRMMYYGQLLHYLSIGLTLVMTYSCNLRCPYCYEGDIKSKGGLLTREKIETILTFASAHAQGDKKPTISVSFYGGEPLLNWKGCEYTLQRLEEMKENKEIRDYSAGFVTNGTLINEDIVDAINNYNVYSMQITLDGPKEIHDKRRIKSNGEGTFDQIIENIKLLNRRIANKNFHLALRINVDKTNYKKIPELLDFLKDEGLGGIPISYGIVRGNLPYCSSNCGVYFSGSDLQKYLPYLWKEAYRRGFEVWTRPNL | failed |
| NLMKRCTRGFRKLGKCTTLEEEKCKTLYPRGQCTCSDSKMNTHSCDCKSC | not failed |
| NQLSGLHSMEEQLAKKLQIKKCLVVQGDSDDTPWVREEMGRVAVEQLDMALTEKRNIVAVMGGSTMATVAEMMTTDFAKGRELLFVPGRGGIGEDLDNQANTICDKMATKTNTKHRVLYVPEQLGEEAYRSLLKEPAIQEGLRLVQSANAIILGIGDALAMAKRRHTGEDVLEKIIRRKAVGEAFGYYFDEQGEVVHKVPTFGLQFEDLAQIPHIIAVAGGTSKAKAIKSYMKSAPKNTILITDEGAAKSLLK | not failed |
| NSVNCDELGPLPPGWEVRSTVSGRIYFVDHNNRTTQFTDPRLHHIMNHQCQLKEPSQPLPLPS | failed |
| PAGVMIADAASGKLVLTNEQAKQILRYQFEDSLELKEYAPVTPFAAFRCDGQPYDPYEYPLPRSLLTGEVISQEEMLLRWEDNSHIFISVNSAPILDSQGQIAAAAIVFQDVTERKHLESELQQREQEFKMVAENAP | failed |
| PAKWKRGRPDILHVALLTTTDSPLYNEGLLRIYFQVYDGRLFEVGTGVRVPKNYERFRGLVAQLLKTERVPPGEGEALIRLHSRSLAEFVEREGRFILMWEKGSPTTTTYVAARALSTGLPIGVGCFPRGEFKRSTLRKASEAYSIMGGAPLKTWGVASRIVYALER | failed |
| PCYENKFAPRCARCSKTLTQGGVTYRDQPWHRECLVCTGCQTPLAGQQFTSRDEDPYCVACFGELFA | not failed |
| PDAARKAQILWCQPDRAKAWTDWMRKGKFPVGGSICDNPVAETTSLGEQFGFNGTPTLVFPNGRSQSGYSPMPQLEEIIRKNQ | not failed |
